Reference: article doi:10.1101/2022.05.13.491839 (bioRxiv, 2022)

Legend:
Test in all cases: liposome flotation assay
VAP-A^His sL2 = target: T1, VAP-A^His sL2 (human, UniProt Q9P0L0 8-206)
T1 chain: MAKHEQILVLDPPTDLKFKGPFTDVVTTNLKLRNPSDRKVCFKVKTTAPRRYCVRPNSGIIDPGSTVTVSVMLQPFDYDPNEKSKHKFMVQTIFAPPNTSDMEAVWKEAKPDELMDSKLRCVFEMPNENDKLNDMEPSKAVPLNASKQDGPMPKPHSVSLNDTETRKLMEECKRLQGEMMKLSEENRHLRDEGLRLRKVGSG

VAP-A^His sL1 = target: T2, VAP-A^His sL1 (human, UniProt Q9P0L0 8-132; Q9P0L0 165-230)
T2 chain: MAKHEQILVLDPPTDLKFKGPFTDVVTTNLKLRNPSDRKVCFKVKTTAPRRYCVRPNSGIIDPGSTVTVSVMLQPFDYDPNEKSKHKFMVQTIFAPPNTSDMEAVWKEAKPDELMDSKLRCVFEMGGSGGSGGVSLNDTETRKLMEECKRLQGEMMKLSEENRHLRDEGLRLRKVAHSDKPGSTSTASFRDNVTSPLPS

VAP-A^His sL1/2 = target: T3, VAP-A^His sL1/2 (human, UniProt Q9P0L0 8-132; Q9P0L0 165-206)
T3 chain: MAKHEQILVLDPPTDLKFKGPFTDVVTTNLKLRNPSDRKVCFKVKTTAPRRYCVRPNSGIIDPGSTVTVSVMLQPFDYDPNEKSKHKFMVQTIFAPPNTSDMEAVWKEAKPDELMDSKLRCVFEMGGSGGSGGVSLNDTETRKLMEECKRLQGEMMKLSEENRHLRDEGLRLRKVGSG

VAP-A^His WT = target: T4, VAP-A^His WT (human, UniProt Q9P0L0 8-230)
T4 sequence (looked up): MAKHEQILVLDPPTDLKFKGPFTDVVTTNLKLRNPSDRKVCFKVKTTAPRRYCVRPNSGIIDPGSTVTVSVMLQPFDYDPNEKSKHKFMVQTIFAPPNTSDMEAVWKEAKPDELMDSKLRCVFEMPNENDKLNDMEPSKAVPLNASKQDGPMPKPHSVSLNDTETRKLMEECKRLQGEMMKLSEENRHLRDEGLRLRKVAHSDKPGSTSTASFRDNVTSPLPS

Measured: binding result

B1: FFAT peptide (peptide)
peptide: WCSGKGDMSDEDDENEFFDAPEIITMPENLGH
binds: all assays above
